Experiments:
FXR-DBD = target: T1, FXR-DBD (human, UniProt Q96RI1-1 117-217); assay: fluorescence polarization
T1 sequence: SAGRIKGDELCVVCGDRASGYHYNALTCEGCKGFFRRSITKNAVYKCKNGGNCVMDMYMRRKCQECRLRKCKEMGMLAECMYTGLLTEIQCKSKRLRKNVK

FXR-DBD;RXR-DBD [1] = target: T2, FXR-DBD;RXR-DBD (human;human, UniProt Q96RI1-1;P19793 117-217;130-212, |); assay: fluorescence polarization
FXR-DBD;RXR-DBD [2] = target: T2, FXR-DBD;RXR-DBD; assay: X-ray crystallography

T2 sequence (P19793 130-212, one chain of several): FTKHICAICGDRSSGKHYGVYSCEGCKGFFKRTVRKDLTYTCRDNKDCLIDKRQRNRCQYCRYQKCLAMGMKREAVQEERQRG

B1: IR1 (FPA) (dsDNA)
DNA 1: CCGAGGTCAATGACCTCG
DNA 2: CGAGGTCATTGACCTCGG
Kd (FXR-DBD): 95 nM
Kd (FXR-DBD;RXR-DBD [1]): ~54 nM

B2: IR1 (crystal) (dsDNA)
DNA 1: CCGAGGTCAATGACCTCG
DNA 2: CCGAGGTCATTGACCTCG
binding result (FXR-DBD;RXR-DBD [2]): binds
